22 sequences from the DeepSol protein solubility set can be followed below.

The series is described as follows: soluble on expression in E. coli; label from the status in PepcDB or PDB records.
As for “MAHHHHHHMGIGWEKLDNWEDVPDAGGKYGPLRGPSLVDLQGHVFAIAEAHCKDGGDCSDVGFTGIASKYLDLIGVADPTEILTADASIFGADLLKEGSEVISARNGITRPTTLVLGDSVYVLPGNYSHTGPQVGGTNERGLLLLKGTLTDEGGRKKIKWNETHVVEPQGRGDSRSLTELVGGGGSGAVLRDGTLVFPMQAKDKDGTSVLLSMRFPNSGNKWELSSETPGKGCRDPTLVKWEEKKDDERLFMMAHCAGDYYDVYRSTPHGVNWYTSGQPITRVWGNSHNRKGTVSGVDPPPQSLRKRS”, the “soluble on expression in E. coli” value is given as “not soluble”.

Regarding “MIKNNIKHTWYFGHPQQLVWDYLTKPELLSQWLMESDFQPVAGHTFMFNTKPKVKVGFDGLIYCQVLKVQPDHELEHHHHHH”, the “soluble on expression in E. coli” value is on record as “soluble”.

For the sequence “MSLDTMWFRNIDNFINEINRFALLGTVTNKNGWLINNGIYYAGRLGKLHSTPTKGQQVVTDAMRIYPYLGEQYFVAAEQITTNYGGIDANGKTVNLDQIREEGKKKYLPKTYTFDDGAIVFKAGDKVSEEKIKRLYWAAKEVRSQFYRTVGSDKPLEKWTCEGHHHHHH”, the “soluble on expression in E. coli” value is recorded as “not soluble”.

On to “MAVPAASSIVSYGGAATSNFLTTPVTPFLAGFYNSNFVTDRINSCAPYRVDRIRKQLQDEEENGYPPADDRRRGALFCRSGTWLEMLPIENPDDGSTRVKVHGTKEESSKFSIVEFVSVAMSLVSIRGVETKNFICMDPSGKLYATPSSNYSTECVFLEEMMENYYNLYASCAYGDRFNPWYIELRRSGKPRRGPNSKKRRKASHFLVVHHDLDRLRSPVPNGNDVTDLVVASLFHQPPSHPLFRQQTVTKPPNPHRISNLRAKVEMTNQAEKQRLLEEKKRRREKKKRRREDRLRKEEQIREARRQELKSLREEELRRRYQQQQQQQASTQTRYNRPQNPANPYPTYRPLPTRSTVQSPRPAYNPYWQSPVTQAPHHNSHHHHHHHPRVSSSSDPQQRHQSQQHYLAQTVSNPNRQNVNYQRYP”, for which the “soluble on expression in E. coli” value is “not soluble”.

With “MGSDKIHHHHHHMNSLPTESPQSKKSLPSTSMLAAFDAAARTGSFTAAAKDLALTQGAISRQVNALEMQISVNLFHRHKQNISLTEAGKTYAKEVNSALSHIRSATLNLMTNPDGGILNIAILPTFGSRWLMPRLADFLAKHPRITINTVCKLSQFDFSHEDIHCAIHFGKADWSQANCTFLMAEESVPVCSPKLFEQAELAKVDNVCARLINLPLLHIATRPNAWQHWFDEHNVDSTTKEQPKKKTLQDMHFEQFSIVTNAAVAGLGVALLPKFLVESELQRGELQVICNKPQRTDNGYYLVTPNDKLNYAPMVAFTRWLSQVIKSEKPSILNK”, the “soluble on expression in E. coli” value is “not soluble”.

Regarding “MMKEASEPLASVTSINKQDSKVQDGEIRKEKIGTITPSKQHSSVHFFPKIMDSDSTTLIPLSRSFSQEMPIGFYQITSTQNSSTLSSRGQLASKSTILSCSHKDSSLGKQSTSSMVPRRQPQSSSDVDTYTFGNGEDYFLSLFGESKKLTAHTPQAENVSEHLSVILEEVGQFTSSSLGEIKIAEVNIKGLFVRLVNSSNEKEVEIGNHILQQNVNGHAVSLYQFPDNITLQANSTVTVWAAASEAKPQPPTDFVWEEQSKFRSSPDCTTILCKPNGEAIAWYTPIHWKQAWEKLETDIEFERCSVVVPSMRNHMFGWITASVSSTNEEKEEPIQKTPSQVYPVLYREKEIPPTVLPNKSPWCRNPNTSPHPYSSLIDSHDSDISESSLDTQLKPQPTKPKPDPGTKKKKAKS”, the “soluble on expression in E. coli” value was “soluble”.

Consider “MWKIMRSWKCGGMRWAHRQRPSHELLSQLSFDQHYKIRSNIELLIQDYASKPIAPLNYEYFLQYRPPLTKKEEYMLTIKTINLLLSLTCKRLNAIQRLPYNAVINPHIERTNSLYLKSLQTLLSIAYPYELHNPPKIQAKFTELLDDHEDAIVVLAKGLQEIQSCYPKFQISQFLNFHLKERITMKLLVTHYLSLMAQNKGDTNKRMIGILHRDLPIAQLIKHVSDYVNDICFVKFNTQRTPVLIHPPSQDITFTCIPPILEYIMTEVFKNAFEAQIALGKEHMPIEINLLKPDDDELYLRIRDHGGGITPEVEALMFNYSYSTHTQQSADSESTDLPGEQINNVSGMGFGLPMCKTYLELFGGKIDVQSLLGWGTDVYIKLKGPSKTALLSKK”, for which the “soluble on expression in E. coli” value is listed as “soluble”.

On to “MGSDKIHHHHHHMRVLIINTSERIGGAAVAAGRLMESLKNNGIKAKMLVRDKQTDQISVVGLKGSWLHVWKFMWERIVIWKANRFKKNDLFAVDIANTGTDITSLPEFQQADVIHLHWINQGMLSLNTIRKILTSGKPVVWTMHDMWPCTGICHYARECKNYEQECHHCPYIYGGGGKKDLSTRIFRKKKEIYSQASITFVGCSRWLAEKAKVSGLLTGQTVISIPNAINTNLFKPHNKQEARRKCRLPQEGKLILFGSVKITDKRKGIDYLIEACKLLAEKHPEWKESLGVVVFGNQSQQLQDLIPFRVYPLPYIKNEHELVDIYNAVDLFAIPSLEENLPNMVMEAMSCGVPCVGFNTGGIPEMIDHLHNGYVAQRKSSEDLANGIHWVLTEPEYAELSAQACRKAIGNYSESIIAKKYTEVYNKITGKYA”, for which the “soluble on expression in E. coli” value was “not soluble”.

In the case of “MQDGMYQRFLRQHVHPEETGGSDRYCNLMMQRRKMTLYHCKRFNTFIHEDIWNIRSICSTTNIQCKNGKMNCHEGVVKVTDCRDTGSSRAPNCRYRAIASTRRVVIACEGNPQVPVHFDG”, the “soluble on expression in E. coli” value is reported as “soluble”.

As to “MGSDKIHHHHHHMARLLSELQPSEFDITVVAIADTPPDVVSMLPDHVEVKHLKMTRRTALLQLGEISKIVKSTDILVCSLFHATAIGVPLGLLLQVPKLLVWQHSTSYSNQIRSAYYRLAYRAADRVLADSDAVMEMLVDSVGVPDQKISTLPIAGIDVKEYQPSKTHPSHENITVSTVGRLANVKGYDDLIRCARDIGDDLQFQIAGEGEERERLESKTPDNVNFQGMVPNEQIPQFLNNSDIYFQPSKYEGLCMAVIEAMACGLPVVASDVGGITESVVPGETGFLCRPRDIDCFSERLQQLSENPALRKQMGTAGRKRVISEYSQKALARQFRKAIDQTETV”, the “soluble on expression in E. coli” value is recorded as “not soluble”.

In the case of “MGSDKIHHHHHHMTKTKNEKEEFIRVGTTLYKLVNQPRLNGGYVRKRIVWNNETLRQDYGKDYLATVPKYDGFCTVPNHVDYRPVVDKFLNLYEPIEHCPQQGEFPCIQSLVRHIFGEQYELGMDYLQLLYLQPVQKLPILLLVSEERNTGKSTFLNFLKALFQNNVTFNTNEDFRSQFNSDWAGKLLIVVDEVLLNRREDSERLKNLSTTLSYKVEAKGKDRDEIAFFAKFVLCSNNEYLPVIIDAGETRYWVRKIDRLQSDDTDFLQKLKAEIPAFLHFLQHRQLSTEKESRMWFAPSLLHTEALRKIIRSNRNRLEIEIHELILDIMDSVGTDTFSFCYNDLLLLLVHSQVKVEKYQVRKVLQECWKLTPASNGLTYTTYQFNYNRECRYEPIKRVGRFYTVTRKQLDSL”, the “soluble on expression in E. coli” value is given as “not soluble”.

As for “MGSDKIHHHHHHMTSVEAFRGLYYPNKIGRLCFLSLEEVMGQNGVKALLRLADLQQYIDAYPPNDLKREFPFEAISKYSVALGTMYGPRGARGLELRAGRVAFSLGLKEFGPLLGMADLALKLMPITMKLKIVLNATAQTFDRFSDQSSHVEEERGRFVYHITRCSNCITRPEPGPVFYIARGILEEATAWVSGGRRFAVEQLSCMGQGNCSSCAFAIGKDPLE”, the “soluble on expression in E. coli” value is “not soluble”.

Turning to “MSTQGEIRVGPSHQAKLPDLQPFPSPDGDTVTQHEELVWMPGVNDCDLLMYLRAARSMAAFAGMCDGGSTEDGCVAASRDDTTLNALNTLHESGYDAGKALQRLVKKPVPKLIEKCWTEDEVKRFVKGLRQYGKNFFRIRKELLPNKETGELITFYYYWKKTPEAALEHHHHHH”, the “soluble on expression in E. coli” value is listed as “soluble”.

As to “MAAMITPPGAGVKDKKRAILEATLAVLRERGLSGLKMEEVARRAEVGKGTIYLYFRDKRDLLKALVEERTWAFYREVEEVVRRKAPFFVRLEEVLRRRLAWVQEWRGLWAAVAREAMDDPTPWLKGLHEHYLRLLEELLRSGQSEGAVRTGLSPRATAAVIAAMGCTPSLEVEAYLEHLMEVLRKGVEP”, the “soluble on expression in E. coli” value is recorded as “soluble”.

Take “MTSLSVNDRKDFVDGQMKYWRQIAESDGFDIDDVPVPRGTRAGLWSVDCKHPRFRLRACLPKIYAMVGLHRYNLLRGTNFEHLELLKYNESMNCVCSYYITSVAVDLSSQLQKTFQIRVDEKSFGDLDLTVSVARPNDEEKVTTEKRFIHHFHCEAAADDFYKGALPDWPSVGDLNNQKRFYMVKKCELQSNDWIRLYLELAVGVRYQQTSESDLSKLQVLKVAIETKEEDVQPPNRRLKSKSLHVYITFKGLAKAPIGDEIGEHVERKAIVRRVIDERSGHLTLLGGFSNAKNDLNQSSDDEQPFGKRRRI”: the “soluble on expression in E. coli” value is “soluble”.

As for “MSSENAQLKKDLIKAVLSPLFPTATEGGENMDSNLKALLDAAIDQKVDESETVTAESILDPSLPARWIFARITPGTTISIVTDSGDMIGPVVFVAFDQVHGIVFVTQESSVTPAGQATTLIDVDKVESVTFFSLEHHHHHH”, the “soluble on expression in E. coli” value was “soluble”.

Turning to “MSLSVYEKVNALDKRAIEELFLSEDILMENAAMALERAVLQNASLGAKVIILCGSGDNGGDGYALARRLVGRFRVLVFEMKLTKSPMCQLQKERAKKAGVVIKTYEENALNQNLECDVLIDCVIGSHFKGKLEPFLNFESLSQKARFKIACDIPSGIDSKGRVDKRAFKADLTISMGAIKSCLLSDRAKDYVGELKVGHLGVFNPIYEIPTDTFLLEKSDLKLPLRDKKNAHKGDYGHAHVLLGKHSGAGLLSALSALSFGSGVVSVQALECEITSNNKPLELVFCENFPNLLSAFALGMGLENIPKDFNRWLELAPCVLDAGVFYHKEILQALEKEAVLTPHPKEFLSLLNLVGINISMLELLDNKLEIARDFSQKYPKVVLLLKGANTLIAHQGQVFINILGSVALAKAGSGDVLAGLILSLLSQNYTPLDAAINASLAHALASLEFKNNYALTPLDLIEKIKQLEGHHHHHH”, the “soluble on expression in E. coli” value is “soluble”.

On to “MPDQISVSEFVAETLEDYKAPTASSFTRTAQCRNTAAAIEEDAVTYDDVHVNFTREEWNLLHPSQKSLYKDVMLETYWNLTVIGYTWENHHIERHCQSSRRNERFSLHCQLP”, for which the “soluble on expression in E. coli” value was “not soluble”.

For the sequence “MGSDKIHHHHHHMLSRTASELYWMARYLERAESLARVLDVTYKLSMMPRHSQQQHDLALPLNLTMTHELFQQRYAHFSMNNLLNFFALDSENPSSIYNCIEMAWNNAHAVRGSLSSEVWECINTTRIDIRNLRHQGVDNIGINEFFDWVKERSHLFRGAMFGTLLRNDAQCFIRIGTLIERACATAQLLNVKHQQLHNDPDPVREYYRLDTLLRAVSAREAYHSIYRQPISPETVTELLVLREDVPRSLHACVGDLVLQLEAIGSQRAKVPHRLAHLLHVELRFSTLDDVLAQDLPTYLNNFIIKINELADSIRHTYLEAL”, the “soluble on expression in E. coli” value is recorded as “not soluble”.

Turning to “GPGSMRSAVNLGGAPRVPSQRLPAFEGVSPRIVARQVPAHRGEYVSLVLRPTSLNAQRNSLVASCVVTDESVEVMGLPADAEVAQVNEFVCYINPSSGELEYYQHGTYNDEYDVDVYRKLLELCPKFPALF”, the “soluble on expression in E. coli” value is “not soluble”.

With “MNEIIMLLRTIPTSKLIQPIMQLFIDNAILNIVQNDALLIEKATHARNHLRLWSLQGHRDIPNLEHHHHHH”, the “soluble on expression in E. coli” value is “not soluble”.

With “MGSDKIHHHHHHMTVKSSTSSLHDRSSTSTSLMPGFADPVFDAQAVFRASLLATAYPGRVVPVDRALASPRPFSSATAALCLTLMDFETLAWLDRQAASGEAVAWLRFHCGLPVTDDPMKARFAVVTDALTMPRLVEFHPGDVEYPDRSMTLIIQVPSFNEGPATTWTGPGIKTSARVSIGGLPFWYWSDWEMNRELYPRGIDVIFTNGNALVGLPRTIAVEA”, the “soluble on expression in E. coli” value was “not soluble”.
